Reference: US12115223B2, “Conjugate of biotin-modified dimer and phthalocyanine dye” (THE UNIVERSITY OF TOKYO, priority 2021, dated 2024)

T1: Recombinant Human CEACAM-5/CD66e Protein (Homo sapiens, UniProt P06731)
T1 construct: purchased R & D SYSTEMS
T1 sequence (P06731 35-676): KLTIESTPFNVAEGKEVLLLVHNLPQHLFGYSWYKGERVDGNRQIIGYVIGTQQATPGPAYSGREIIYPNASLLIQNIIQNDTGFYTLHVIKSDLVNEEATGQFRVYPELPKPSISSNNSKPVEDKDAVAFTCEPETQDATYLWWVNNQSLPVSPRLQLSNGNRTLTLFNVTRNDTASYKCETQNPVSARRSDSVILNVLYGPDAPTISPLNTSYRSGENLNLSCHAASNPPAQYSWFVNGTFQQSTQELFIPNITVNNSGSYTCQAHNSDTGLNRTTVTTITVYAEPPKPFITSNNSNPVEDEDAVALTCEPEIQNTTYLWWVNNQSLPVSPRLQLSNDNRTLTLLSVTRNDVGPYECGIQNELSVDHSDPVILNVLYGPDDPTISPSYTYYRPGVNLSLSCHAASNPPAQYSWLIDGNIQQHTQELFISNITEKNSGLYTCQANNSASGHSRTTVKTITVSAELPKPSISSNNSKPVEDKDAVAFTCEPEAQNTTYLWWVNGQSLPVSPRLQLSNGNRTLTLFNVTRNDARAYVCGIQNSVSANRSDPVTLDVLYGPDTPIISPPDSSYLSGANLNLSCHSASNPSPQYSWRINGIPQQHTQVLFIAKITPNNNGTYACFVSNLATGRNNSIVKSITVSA


Columns and labels:
[1] = molecular target: T1, Recombinant Human CEACAM-5/CD66e Protein; test: SPR (Biacore T200) affinity of CEA-V2122 for the antigen CEACAM5; format: binding; conditions: bivalent analysis
Procedure: The affinity of CEA-V2122 for the antigen CEACAM5 was evaluated using a surface plasmon resonance (SPR) measuring device, Biacore T200 (GE Healthcare Life Sciences). Specifically, Recombinant Human CEACAM-5/CD66e Protein, CF (R & D SYSTEMS) was immobilized on Sensor Chip CMS (GE Healthcare Life Sciences) using an amine-coupling kit (GE Healthcare Life Sciences). The fmal amount of the ligand immobilized was 279 RU. Moreover, with regard to the purified CEA-V2122, two-fold serial dilutions from 1E-08 M to 6.25E-10 M were prepared as analytes. Regarding interaction analysis, data were obtained by single-cycle kinetics analysis. Using Biacore T200 Evaluation Software, version 2.0, the obtained data were subjected to curve fitting in a bivalent analysis mode, and the following values were obtained: ka1=3.208E+5, and kd1=3.461E-7.

[2] = system: CEACAM5-positive MKN-45 cells and CEACAM5-negative DLD1 cells; test: Cell staining of CEACAM5-expressing cell line using FITC-labeled CEA-V2122; format: cell-based, human; conditions: 20 nM CEA-V2122-FITC
Procedure: In order to stain a CEACAM5 expression-positive cancer cell line, FITC labeling was carried out on the cell line, using 100 μg of a purified CEA-V2122 protein. Specifically, labeling was carried out using Fluorescein Labeling Kit-NH2 (DOJINDO LABORATORIES) in accordance with the dosage and administration described in the operating manual included with the kit, and the obtained product was defined to be CEA-V2122-FITC. Specific staining of the CEACAM5 expression-positive cancer cell line is as follows. That is, CEACAM5-positive human stomach cancer-derived MKN-45 cells and CEACAM5-negative human colon cancer-derived DLD1 cells were each seeded on a CELLSTAR, μClear, 96-well plate (Greiner) to a cell density of 2.0×10^4 cells/well, and thereafter, the cells were cultured overnight. Subsequently, a culture solution containing 20 nM CEA-V2122-FITC and 1 μM Hoechist was added to the 96-well plate to a concentration of 100 μL/well, and the obtained mixture was then reacted at 4° C. for 30 minutes. Thereafter, each image was taken using In Cell Analyzer 6000 (GE Healthcare Life Sciences).

| KD=kd1/ka1 [1] | Molecule | localisation of CEACAM5 after binding (time-series images of MKN45 cells, FIG. 6) [2] | recognition of CEACAM5 on cells (stained cell images, FIG. 5) ([2]; 4° C., 30 minutes) |
| --- | --- | --- | --- |
| 1.078E-12 | CEA-V2122: scFv-type anti-CEACAM5 antibody bound with mutant streptavidin V2122 via an amino acid linker (SEQ ID NO: 3) (protein) QVKLEQSGAEVVKPGASVKLSCKASGFNIKDSYMHWLRQGPGQRLEWIGWIDPENGDTEYAPKFQGKATFTTDTSANTAYLGLSSLRPEDTAVYYCNEGTPTGPYYFDYWGQGTLVTVSSGGGGSGGGGSGGGGSENVLTQSPSSMSVSVGDRVNIACSASSSVPYMHWLQQKPGKSPKLLIYLTSNLASGVPSRFSGSGSGTDYSLTISSVQPEDAATYYCQQRSSYPLTFGGGTKLEIKGGGGSGGGGAEAGITGTWSDQLGDTFIVTAGADGALTGTYENAVGGAESRYVLTGRYDSAPATDGSGTALGWTVAWKNNSKNAHSATTWSGQYVGGADAKINTQWLLTSGTTNANAWKSTLVGHDTFTKVKPSAASHHHHHH | – | – |
| – | CEA-V2122-FITC: purified CEA-V2122 protein labeled using Fluorescein Labeling Kit-NH2 (conjugate) QVKLEQSGAEVVKPGASVKLSCKASGFNIKDSYMHWLRQGPGQRLEWIGWIDPENGDTEYAPKFQGKATFTTDTSANTAYLGLSSLRPEDTAVYYCNEGTPTGPYYFDYWGQGTLVTVSSGGGGSGGGGSGGGGSENVLTQSPSSMSVSVGDRVNIACSASSSVPYMHWLQQKPGKSPKLLIYLTSNLASGVPSRFSGSGSGTDYSLTISSVQPEDAATYYCQQRSSYPLTFGGGTKLEIKGGGGSGGGGAEAGITGTWSDQLGDTFIVTAGADGALTGTYENAVGGAESRYVLTGRYDSAPATDGSGTALGWTVAWKNNSKNAHSATTWSGQYVGGADAKINTQWLLTSGTTNANAWKSTLVGHDTFTKVKPSAASHHHHHH | the CEACAM5 stays on the surface of the cell membrane | specifically recognizes CEACAM5 on the surface of the cell membrane |
